Reference: patent US20230140200A1 (TRUSTEES OF COLUMBIA UNIVERSITY IN THE CITY OF NEW YORK, published 2023)

Assays:
mouse TfR1 protein = target: T1, mouse TfR1 protein (mouse, UniProt Q62351 1-763); assay: immunofluorescence on normal mouse liver frozen tissue sections
T1 construct: whole, on cells; Endogenous protein in mouse tissue sections

[1] = target: T2, human transferrin receptor protein 1 (TfR1) (human, UniProt P02786 1-760); assay: immunoprecipitation with 3F3-FMA from HT-1080 cell lysate and mass spectrometry; staining lost after siRNA knockdown of TfR1
T2 construct: whole, on cells; Endogenous full-length protein of human cell lines; no recombinant construct was used; also called transferrin receptor 1; CD71
Method: The beads were used for mass spectrometry.
Trypsin digestion was performed overnight at 37° C. Supernatants were collected and dried down in a speed-vac, and peptides were dissolved in a solution containing 3% acetonitrile and 0.1% formic acid. Peptides were desalted with C18 disk-packed stage-tips. Desalted peptides were injected onto an EASY-Spray PepMap RSLC C18 50 cm×75 μm column (Thermo Scientific), which was coupled to the Orbitrap Fusion Tribrid mass spectrometer (Thermo Scientific). Peptides were eluted with a non-linear 110 min gradient of 5-30% buffer B (0.1% (v/v) formic acid, 100% acetonitrile) at a flow rate of 250 nl/min. The column temperature was maintained at a constant 50° C. during all experiments. Thermo Scientific™ Orbitrap Fusion™ Tribrid™ mass spectrometer was used for peptide MS/MS analysis. Survey scans of peptide precursors were performed from 400 to 1575 m/z at 120K FWHM resolution (at 200 m/z) with a 2×10⁵ ion count target and a maximum injection time of 50 ms. […] CID fragmentation was applied with 35% collision energy and resulting fragments were detected using the rapid scan rate in the ion trap. […]
The antigen of 3F3-FMA was identified using immunoprecipitation and mass spectrometry. […] Then magnetic beads were added and washed, and bead-immobilized proteins were analyzed by mass spectrometry. […]

T2 sequence (P02786 whole entry): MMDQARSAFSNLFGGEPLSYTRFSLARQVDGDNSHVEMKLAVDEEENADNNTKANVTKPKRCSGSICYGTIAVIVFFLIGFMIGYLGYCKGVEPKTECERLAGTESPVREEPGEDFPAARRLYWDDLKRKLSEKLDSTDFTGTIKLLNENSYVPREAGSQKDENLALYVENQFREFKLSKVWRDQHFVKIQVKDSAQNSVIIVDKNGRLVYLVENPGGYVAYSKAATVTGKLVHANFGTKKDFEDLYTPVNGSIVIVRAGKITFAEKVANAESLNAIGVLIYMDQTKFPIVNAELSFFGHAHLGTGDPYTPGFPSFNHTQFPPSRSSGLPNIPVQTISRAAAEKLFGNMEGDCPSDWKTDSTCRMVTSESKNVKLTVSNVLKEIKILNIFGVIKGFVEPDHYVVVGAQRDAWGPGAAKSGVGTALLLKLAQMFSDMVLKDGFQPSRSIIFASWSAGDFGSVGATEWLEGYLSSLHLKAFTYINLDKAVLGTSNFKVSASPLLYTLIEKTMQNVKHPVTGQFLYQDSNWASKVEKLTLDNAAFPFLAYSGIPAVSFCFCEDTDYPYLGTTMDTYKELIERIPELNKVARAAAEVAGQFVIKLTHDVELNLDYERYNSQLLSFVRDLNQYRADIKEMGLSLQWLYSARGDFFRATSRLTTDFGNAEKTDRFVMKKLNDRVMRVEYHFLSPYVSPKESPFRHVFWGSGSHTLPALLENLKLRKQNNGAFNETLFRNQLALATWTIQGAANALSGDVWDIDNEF
T1 sequence (Q62351 whole entry): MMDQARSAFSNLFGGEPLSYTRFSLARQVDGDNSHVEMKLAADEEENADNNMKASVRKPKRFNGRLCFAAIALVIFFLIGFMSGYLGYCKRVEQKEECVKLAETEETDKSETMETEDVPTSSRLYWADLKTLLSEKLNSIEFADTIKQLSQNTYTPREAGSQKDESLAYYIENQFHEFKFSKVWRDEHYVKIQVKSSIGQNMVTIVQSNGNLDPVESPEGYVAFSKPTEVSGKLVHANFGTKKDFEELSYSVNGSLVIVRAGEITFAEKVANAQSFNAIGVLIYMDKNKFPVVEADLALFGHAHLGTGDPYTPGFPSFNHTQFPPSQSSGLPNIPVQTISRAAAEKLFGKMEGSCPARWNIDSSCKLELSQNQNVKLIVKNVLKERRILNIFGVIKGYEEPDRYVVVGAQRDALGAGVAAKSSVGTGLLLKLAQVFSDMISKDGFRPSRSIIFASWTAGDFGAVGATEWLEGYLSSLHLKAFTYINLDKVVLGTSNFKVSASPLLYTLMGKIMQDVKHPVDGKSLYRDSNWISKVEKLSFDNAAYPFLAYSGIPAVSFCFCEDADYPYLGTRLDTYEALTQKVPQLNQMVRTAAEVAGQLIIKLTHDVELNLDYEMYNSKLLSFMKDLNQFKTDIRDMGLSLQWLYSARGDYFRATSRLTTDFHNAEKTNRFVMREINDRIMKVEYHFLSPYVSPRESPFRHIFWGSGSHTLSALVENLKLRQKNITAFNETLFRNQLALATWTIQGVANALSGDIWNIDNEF

binding result (mouse TfR1 protein): binds
binding result [1]: binds
B1: 3F3 anti-Ferroptotic Membrane Antibody (3F3-FMA) (antibody, V domains shown)
VH: EVLLQQSGTELVRPGALVKLSCKASGFNIQDLYIHWVKQRPEQGLEWIGWIDPETDNTIYDPKFQGKASITADTSSNTAYLQLSSLTSEDTAMYYCSTGLLQWYFDVWGAGTAVTVSS
VL: DIVMTQSPSSLAMSIGQKVTMRCKSSQSLLNSYNQKNCLAWYQQKPGQSPKLLLYFVSTRESGVPDRFIGSGSGTDFTLTISSVQAEDLADYFCQQHYSTPLTFGAGTKLELK
notes: the entries 1 and 2 should match these; also called mAb 3F3 FMA; clone FH3F3
